# Reference: the DeepSol protein solubility set
# Test: soluble on expression in E. coli; label from the status in PepcDB or PDB records
row,Sequence,soluble on expression in E. coli
1,MADDEDDIVWIREDTAQSSVPTSPTTPATIIEAAPVLSDAFDKPILKSVETISVSNGPPEVTISAPPPTPPAAPLAPQITPMVLSTVPDAAPAQDIPALILAALAPEPVPEPEPEVEAKQNVIVEKENEIKDQQQNDQLSAKLDPKTPNSVDDNSMSFDISECERKFNTAIREANDILEDFDKKSKQVAENTKFVAKELAELAADAPRVFQKTIEDHSQVPEISELPSGGLPKNVESVLIGEGILEEITGTLVLPTGQVLVTDERVGILLFNLEGDVLAKINPADFRKLWSPVYHKEHILVLADAKNAENHWSRHVIKFTCQLEYVAKIECPSWLAECTILRERLSIAHNDHLYLCVCGEIFSGIYELTPIGQWTELEYKLSEAYIDMLAFATIGPITQLLVVEGRRNYVLLVSVRESRIVDRKRMAICERPGALAKDEAGRLFVSNRFSASIQLVDTMRWVSEKNVAITEAFVRHFTACWGLLAIPLKNAVRLQRYSFRSLR,not soluble
2,MATVTKAPKKQIQFADDMQEFTKFPTKTGRRSLSRSISQSSTDSYSSAASYTDSSDDEVSPREKQQTNSKGSSNFCVKNIKQAEFGRREIEIAEQDMSALISLRKRAQGEKPLAGAKIVGCTHITAQTAVLIETLCALGAQCRWSACNIYSTQNEVAAALAEAGVAVFAWKGESEDDFWWCIDRCVNMDGWQANMILDDGGDLTHWVYKKYPNVFKKIRGIVEESVTGVHRLYQLSKAGKLCVPAMNVNDSVTKQKFDNLYCCRESILDGLKRTTDVMFGGKQVVVCGYGEVGKGCCAALKALGAIVYITEIDPICALQACMDGFRVVKLNEVIRQVDVVITCTGNKNVVTREHLDRMKNSCIVCNMGHSNTEIDVTSLRTPELTWERVRSQVDHVIWPDGKRVVLLAEGRLLNLSCSTVPTFVLSITATTQALALIELYNAPEGRYKQDVYLLPKKMDEYVASLHLPSFDAHLTELTDDQAKYLGLNKNGPFKPNYYRY,not soluble
3,MDVMNAFDSQAEDSPTSLGRSLRRRPLARKKLSEMVEEELEQMIRRHEFGEGEQLPSERELMAFFNVGRPSVREALAALKRKGLVQINNGERARVSRPSADTIISELSGMAKDFLTHPGGIAHFEQLRLFFESSLVRYAAEHATDEQIALLTKALEINSQSLDDNALFIRSDVEFHRVLAEIPGNPIFMAIHVALLDWLIAARPSVPDRELHEHNNVSYQQHIVIVDAIRQRDPDKADRALQTHLNSVSATWHALGKKSQKMR,not soluble
4,MAHHHHHHMPWATTLDLKATPPPTLCVTVSNTTDVLIIADMQVDFLTPGGSLHVKGGEALLDGINAVSSQLPFRYQVATQDWHPENHCSFVTHGGPWPPHCVQGSSGAQLHAGLHTHRINAVLRKGATQQADSYSAFVDDNGVSTGLAGLLHSIGARRVFVCGVAYDFCVFFTAMDARKNGFGVVLLEDLTAAVDDAAWSARAAELKEAGVVLLSSSALVAEGTET,soluble
5,MGSDKIHHHHHHMKQDRRKLFVLDTNVLLHEPLAIYSFKEHDVVIPMTVLEELDNIKDRKHDISRDARVAIRALEDILGGPTTPEQILKGVPLPSREGHLDVAGSLSIFPDHQVDFIAGALPGDNNDNLIINVALHLQKVHKPRTVVLVTKDINMRLKAKGAGIEKVEDYRTDQLIDDIRFLAKGFYQFEGDFWSKLDKVTTERQGKHTIHHVPIAALGKEAFYLNQYLLDDEANFCGRITGKTDTQLDIIDLGRDRLNHIEAWGIKPKNIYQGMALNALLDPEIDLVILTGPAGCGKTLLAIAAALELVVERKRYDKIIVTRNTPEIAESIGFLPGTEEEKMAPWLAAITDTLEVLHKNDVNPSGSMNYIMEKANIQFKSINFMRGRSIQNSVVLLDECQNLTASQIKTMITRMGEGTKLICCGNLSQIDSTYLTAVTSGLTYIVERFKDFEGSANVYLNGVVRSRLAEYAEEHL,not soluble
6,MEVIREQEFVNQYHYDARNLEWEEENGTPKTNFEVTFQLANRDEAAKVTSIVAVLQFVIVRDEFVISGVISQMAHIQGRLINEPSEFSQDEVENLAAPLLEIVKRLTYEVTEIALDRPGVTLEFNS,soluble
7,AIAFKRKTAWFSDSVEKEVISFWVSEGGDISSWKTAGYLFSDDASSEDTKRIYGSEDYVKNRATVFHSSFLLACQPRQSVTSVPIGHYVLPPDFVQNEMKAIIGRFIWEKDEQVICEEQINPEVPKDILSGETEDHALRERSSQDDYQTVTSQSKVCSCCEMRQYPVNNMISGYVHIDQMRKYSGELKDFLPSLHGHDVSRSNDPTPPFHRKAV,soluble
8,MGHHHHHHSHMTSEQIPNRVLLFDGVCNLCNGAVQFIIKRDPDGLISFTSLQSETGQSLLKKSGLPTDRFDSFVFIEDGQVYTKSTAAIKVFRHLRGPWRLFVLFFAVPKPVRDMVYSFIAKNRYKWFGKKNECMLPSPSIKKRFLP,not soluble
9,MRKIVLPGDLLSTNPRAAGYGTYVEGGKVYAKIIGLFDQTETHVRVIPLKGRYTPSVGDVVIGIIREVAANGWAVDIYSPYQAFLPVSENPEMKPNKKPNEVLDIGDAIIAKVLNIDPKMKVTLTMKDRICRPIRFGRIVAINPARVPRVIGKKGSMIKLLKSELDVQIVVGQNGLIWVNGDRRKVSIAEEAIYLIEQEAHTEGLTDRVAEFIKRRKADVGIQHHHHHH,soluble
10,MGSDKIHHHHHHMGKFLKKHYIMAPGPTPVPNDILTEGAKETIHHRTPQFVSIMEETLESAKYIFQTKHNVYAFASTGTGAMEAAVANLVSPGDKVIVVVAGKFGERWRELCQAYGADIVEIALEWGDAVTPEQIEEALNKNPDAKVVFTTYSETSTGTVIDLEGIARVTKEKDVVLVTDAVSALGAEPLKMDEWGVDLVVTGSQKGLMLPPGLALISLNDKAWGLVEKSRSPRYYFDLRAYRKSYPDNPYTPAVNMIYMLRKALQMIKEEGIENVWERHRILGDATRAAVKALGLELLSKRPGNVVTAVKVPEGIDGKQIPKIMRDKYGVTIAGGQAKLKGKIFRIAHLGYMSPFDTITAISALELTLKELGYEFELGVGVKAAEAVFAKEFIGE,not soluble
11,MEITPKRYWRRWRGYEKLDGSSETTSGRRKGKRVKMDPTRKKRFWRIKIVPKLRILKTASPKKFLVWLRDSYVKMMMRLANSRVVGSSGYGGSGFGSGQMKEYDEKMLVEIYKSILMVQAQGNLVHRDTPNNNLKLPSEPAVVSVVSSVVTC,not soluble
12,KMPVTAGLTVEKKINKHLAVETGLLYSNLRAEQNLHYLGIPVKLNVTLAETPKFDLYASVGGVADKCIAGAPDNSFKNEPVQLALTAGVGMNYKINDKLALFAEPG,not soluble
13,MGSDKIHHHHHHMMKMAEFIMVVGTSSNSGKTTITAGLCRILANKGYKVAPFKSQNMSLNSRVAKEDGEIAIAQYTQSLACRVEPSVHFNPILLKPKGNFISQVIVHGRPYKDMNYNEYRKNKDFFLKKIKESLEILDREYDYVIMEGAGSCCEINLLKDDIANLRIAELVNAKAILVADIDRGGVFASIYGTIKLLPENWRKLIKGIIINKFRGNVEVLKEGIEKIEELTGIPVLGIVPYDENLVLPEEDSQVLQSMRSFGNAKSGVEINVVRFSKISNFTDLDPLRYDAFIKFIDFDDDITGDILIFPGTRSSTKEAYYLKQHNFDEKVLEFLKDGGIVIGICGGYQVLGKELIDKEKKESDVGDIEGLKIFDAKTYFGNDKVVKNSCGFLEIDNKTFNVKGYEIHEGFTYSKEKPLIKIERGFGNCGNGFDGSIKKFGDGLAIGTYFHGIFENYEFRNYIINLIRKRKGLDEIYGDSYKDSIEKSLNYFAEVVERSVNLKPLGINAT,not soluble
14,MGSDKIHHHHHHMTDNQLLMQEALEWKMHFLRKDSMFERFSKRVQTKVNERIPEKIHTVVTESVKKMVEATMAGSNIITYKKDTSALSLSEKNELAKKTIVSYQKVAAAEGVGTGAGGIFLSIADFPLLLSIKMKCLFTLSSIYGFDVKDAQERIFLLLVFQLAFSSDDGRKSLFSVIENWETEKKSIDWRVFQQEYRDYIDVVKLFQLLPGVGAAVGGIANYKLLAQLGETARHVFHLRILKETAGE,not soluble
15,GSFTGQGDFHLLDHRGRARCKADFRGQWVLMYFGFTHCPDICPDELEKLVQVVRQLEAEPGLPPVQPVFITVDPERDDVEAMARYVQDFHPRLLGLTGSTKQVAQASHSYRVYYNAGPKDEDQDYIVDHSIAIYLLNPDGLFTDYYGRSRSAEQISDSVRRHMAAFRSVLS,soluble
16,MDTKPPIERSMYIELRTSLEMFRGDLVDLEALANASRDALDQLPFVPKGAKTDHDEAHPNPDPESALRSGRLDSLVCATASAAQSALVTCVKLIDWAYEYEPDDEDDDDDDMVPMDDIDDDDDDDDDDENGGSSGANGGGSNGSGRSGPPDDNGAGAASASVADEFANARPSRGGIVLDLPTRASTTDGPVDAR,not soluble
17,MGSDKIHHHHHHMDTQRIKDDEDAIRSALTSLKTATGIPVTMFATVLQDNRLQITQWVGLRTPALQNLVIEPGVGVGGRVVATRRPVGVSDYTRANVISHEKDSAIQDEGLHSIVAVPVIVHREIRGVLYVGVHSAVRLGDTVIEEVTMTARTLEQNLAINSALRRNGVPDGRGSLKANRVMNGAEWEQVRSTHSKLRMLANRVTDEDLRRDLEELCDQMVTPVRIKQTTKLSARELDVLACVALGHTNVEAAEEMGIGAETVKSYLRSVMRKLGAHTRYEAVNAARRIGALP,not soluble
18,MGSDKIHHHHHHMDDLMGYVIGETSNTELNFLAKHMPEIGSYVSINYCDLEILGMVESVNQGCKIFEDVYNVKDFEKLKDFENNDSYYTIGKIKILGDVKNMQIPRIPPKPGTEVYDASEKILGEIFSKGTIEIGNLISADSKVKLDVNKLCSRHLAILAITGMGKSNTVSVLLEELNNIHATVLVFDMHREYVEIEAKNSTIRRNIIRPKINVYNMSYDALMSLAGVDPQATVQRAMGRRAMKKIKESKKEVDFNTVDEYINSIINELNYYMGMDEFKSKVDSILTLIMRFEDLMTFKDKITAINYNPIQDIKENYVNIVDISELDESSTDLIISYFTGEILKDRKKVLWDTKVAKPIFIIYEEAHLIVPQNRPTKSKIPISKIAREGRKFGVGICLVSQRPKTLDQESLSQCNNFIISKLIEPSDQKHVQHASENLSEDLLNQLPGLNVGEAVIIGPCLKIPAMVKIKRFEGEYGGEDVKFDELWTTEKEKNIPEFIESNELFNDDL,not soluble
19,MATQSDLMELEMAMDPDRKAAVSHWQQQSYLDSGIHSGATTTAPSLSGKGNPEDDDVDNQVLYEWEQGFNQSFNQEQVADIDGQYAMTRAQRVRAAMFPETLDEGMQIPSTQFDSAHPTNVQRLAEPSQMLKHAVVNLINYQDDAELATRAIPELTKLLNDEDQVVVNKAAVMVHQLSKKEASRHAIMRSPQMVSAIVRTMQNTNDVETARCTSGTLHNLSHHREGLLAIFKSGGIPALVNMLGSPVDSVLFHAITTLHNLLLHQEGAKMAVRLAGGLQKMVALLNKTNVKFLAITTDCLQILAYGNQESKLIILASGGPQALVNIMRTYTYEKLLWTTSRVLKVLSVCSSNKPAIVEAGGMQALGLHLTDPSQRLVQNCLWTLRNLSDAATKQEGMEGLLGTLVQLLGSDDINVVTCAAGILSNLTCNNYKNKMMVCQVGGIEALVRTVLRAGDREDITEPAICALRHLTSRHQDAEMAQNAVRLHYGLPVVVKLLHPPSHWPLIKATVGLIRNLALCPANHAPLREQGAIPRLVQLLVRAHQDTQRRTSMGGTQQQFVEGVRMEEIVEACTGALHILARDIHNRIVIRGLNTIPLFVQLLYSPIENIQRVAAGVLCELAQDKEAAEAIEAEGATAPLTELLHSRNEGVATYAAAVLFRMSEDKPQDYKKRLSVELTSSLFRTEPMTWNETGDLGLDIGAQGEPLGYRQDDPSYRSFHSGGYGQDAMGMDPMMEHEMAGHHPGPDYPVDGLPDLGHTQDLIDGLPPGDSNQLAWFDTDL,soluble
